B1: ATGL (PNPLA2, patatin-like phospholipase domain-containing protein 2), human, full length / G0S2 (G0/G1 switch protein 2), human (parent)
chain 1: MFPREKTWNISFAGCGFLGVYYVGVASCLREHAPFLVANATHIYGASAGALTATALVTGVCLGEAGAKFIEVSKEARKRFLGPLHPSFNLVKIIRSFLLKVLPADSHEHASGRLGISLTRVSDGENVIISHFNSKDELIQANVCSGFIPVYCGLIPPSLQGVRYVDGGISDNLPLYELKNTITVSPFSGESDICPQDSSTNIHELRVTNTSIQFNLRNLYRLSKALFPPEPLVLREMCKQGYRDGLRFLQRNGLLNRPNPLLALPPARPHGPEDKDQAVESAQAEDYSQLPGEDHILEHLPARLNEALLEACVEPTDLLTTLSNMLPVRLATAMMVPYTLPLESALSFTIRLLEWLPDVPEDIRWMKEQTGSICQYLVMRAKRKLGRHLPSRLPEQVELRRVQSLPSVPLSCAAYREALPGWMRNNLSLGDALAKWEECQRQLLLGLFCTNVAFPPEALRMRAPADPAPAPADPASPQHQLAGPAPLLSTPAPEARPVIGALGL
chain 2: METVQELIPLAKEMMAQKRKGKMVKLYVLGSVLALFGVVLGLMETVCSPFTAARRLRDQEAAVAELQAALERQALQKQALQEKGKQQDTVLGGRALSNRQHAS

Variants of: B1
Test: LUMIER: Protein A-ATGL variant and firefly luciferase-partner co-expressed in HEK293T, lysates immunoprecipitated on IgG-coated plates, co-precipitated partner measured as luciferase luminescence
Conditions: with G0S2 (G0/G1 switch protein 2), transient co-transfection, IgG-coated LUMITRAC plates, 2 h at 4 °C, three PBS washes, Bright-Glo luciferase reagent, triplicates per assay, two …, scale: log2 fold change of co-immunoprecipitated luminescence relative to wild-type ATGL within each experiment

Work on chain 1 MFPREKTWNISFAGCGFLGVYYVGVASCLREHAPFLVANATHIYGASAGALTATALVTGVCLGEAGAKFIEVSKEARKRFLGPLHPSFNLVKIIRSFLLKVLPADSHEHASGRLGISLTRVSDGENVIISHFNSKDELIQANVCSGFIPVYCGLIPPSLQGVRYVDGGISDNLPLYELKNTITVSPFSGESDICPQDSSTNIHELRVTNTSIQFNLRNLYRLSKALFPPEPLVLREMCKQGYRDGLRFLQRNGLLNRPNPLLALPPARPHGPEDKDQAVESAQAEDYSQLPGEDHILEHLPARLNEALLEACVEPTDLLTTLSNMLPVELATAMMVPYTLPLESALSFTIRLLEWLPDVPEDIRWMKEQTGSICQYLVMRAKRKLGRHLPSRLPEQVELRRVQSLPSVPLSCAAYREALPGWMRNNLSLGDALAKWEECQRQLLLGLFCTNVAFPPEALRMRAPADPAPAPADPASPQHQLAGPAPLLSTPAPEARPVIGALGL [chain 1 R329E] yielded a screen value (parent: 0.26, not graded) of -0.556 and a screen value (parent: 0.56, not graded) of -0.22.

Work on chain 1 MFPREKTWNISFAGCGFLGVYYVGVASCLREHAPFLVANATHIYGASAGALTATALVTGVCLGEAGAKFIEVSKEARKRFLGPLHPSFNLVKIIRSFLLKVLPADSHEHASGRLGISLTRVSDGENVIISHFNSKDELIQANVCSGFIPVYCGLIPPSLQGVRYVDGGISDNLPLYELKNTITVSPFSGESDICPQDSSTNIHELRVTNTSIQFNLRNLYRLSKALFPPEPLVLREMCKQGYRDGLRFLQRNGLLNRPNPLLALPPARPHGPEDKDQAVESAQAEDYSQLPGEDHILEHLPARLNEALLEACVEPTDLLTTLSNMLPVRLATAMMVPYTLPLESALSFTILLLEWLPDVPEDIRWMKEQTGSICQYLVMRAKRKLGRHLPSRLPEQVELRRVQSLPSVPLSCAAYREALPGWMRNNLSLGDALAKWEECQRQLLLGLFCTNVAFPPEALRMRAPADPAPAPADPASPQHQLAGPAPLLSTPAPEARPVIGALGL [chain 1 R351L] yielded a screen value (parent: 0.26, not graded) of 0.121 and a screen value (parent: 0.56, not graded) of 0.273.

chain 1 MFPREKTWNISFAGCGFLGVYYVGVASCLREHAPFLVANATHIYGASAGALTATALVTGVCLGEAGAKFIEVSKEARKRFLGPLHPAFNLVKIIRSFLLKVLPADSHEHASGRLGISLTRVSDGENVIISHFNSKDELIQANVCSGFIPVYCGLIPPSLQGVRYVDGGISDNLPLYELKNTITVSPFSGESDICPQDSSTNIHELRVTNTSIQFNLRNLYRLSKALFPPEPLVLREMCKQGYRDGLRFLQRNGLLNRPNPLLALPPARPHGPEDKDQAVESAQAEDYSQLPGEDHILEHLPARLNEALLEACVEPTDLLTTLSNMLPVRLATAMMVPYTLPLESALSFTIRLLEWLPDVPEDIRWMKEQTGSICQYLVMRAKRKLGRHLPSRLPEQVELRRVQSLPSVPLSCAAYREALPGWMRNNLSLGDALAKWEECQRQLLLGLFCTNVAFPPEALRMRAPADPAPAPADPASPQHQLAGPAPLLSTPAPEARPVIGALGL [chain 1 S87A] was tested, and the screen value (parent: 0.26, not graded) was -0.675 and the screen value (parent: 0.56, not graded) was -0.33.

In the case of chain 1 MFPREKTWNISFAGCGFLGVYYVGVASCLREHAPFLVANATHIYGASAGALTATALVTGVCLGEAGAKFIEVSKEARKRFLGPLHPEFNLVKIIRSFLLKVLPADSHEHASGRLGISLTRVSDGENVIISHFNSKDELIQANVCSGFIPVYCGLIPPSLQGVRYVDGGISDNLPLYELKNTITVSPFSGESDICPQDSSTNIHELRVTNTSIQFNLRNLYRLSKALFPPEPLVLREMCKQGYRDGLRFLQRNGLLNRPNPLLALPPARPHGPEDKDQAVESAQAEDYSQLPGEDHILEHLPARLNEALLEACVEPTDLLTTLSNMLPVRLATAMMVPYTLPLESALSFTIRLLEWLPDVPEDIRWMKEQTGSICQYLVMRAKRKLGRHLPSRLPEQVELRRVQSLPSVPLSCAAYREALPGWMRNNLSLGDALAKWEECQRQLLLGLFCTNVAFPPEALRMRAPADPAPAPADPASPQHQLAGPAPLLSTPAPEARPVIGALGL [chain 1 S87E], the screen value (parent: 0.26, not graded) is reported as -0.559 and the screen value (parent: 0.56, not graded) is reported as -1.39.

chain 1 MFPREKTWNISFAGCGFLGVYYVGVASCLREHAPFLVANATHIYGASAGALTATALVTGVCLGEAGAKFIEVSKEARKRFLGPLHPSFNLVKIIRSFLLKVLPADKHEHASGRLGISLTRVSDGENVIISHFNSKDELIQANVCSGFIPVYCGLIPPSLQGVRYVDGGISDNLPLYELKNTITVSPFSGESDICPQDSSTNIHELRVTNTSIQFNLRNLYRLSKALFPPEPLVLREMCKQGYRDGLRFLQRNGLLNRPNPLLALPPARPHGPEDKDQAVESAQAEDYSQLPGEDHILEHLPARLNEALLEACVEPTDLLTTLSNMLPVRLATAMMVPYTLPLESALSFTIRLLEWLPDVPEDIRWMKEQTGSICQYLVMRAKRKLGRHLPSRLPEQVELRRVQSLPSVPLSCAAYREALPGWMRNNLSLGDALAKWEECQRQLLLGLFCTNVAFPPEALRMRAPADPAPAPADPASPQHQLAGPAPLLSTPAPEARPVIGALGL [chain 1 S106K] showed a screen value (parent: 0.26, not graded) of -0.922 and a screen value (parent: 0.56, not graded) of -1.29.

With chain 1 MFPREKTWNISFAGCGFLGVYYVGVASCLREHAPFLVANATHIYGASAGALTATALVTGVCLGEAGAKFIEVSKEARKRFLGPLHPSFNLVKIIRSFLLKVLPADSHEHASGRLGISLTRVSDGENVIISHFNSKDELIQANVCSGFIPVYCGLIPPALQGVRYVDGGISDNLPLYELKNTITVSPFSGESDICPQDSSTNIHELRVTNTSIQFNLRNLYRLSKALFPPEPLVLREMCKQGYRDGLRFLQRNGLLNRPNPLLALPPARPHGPEDKDQAVESAQAEDYSQLPGEDHILEHLPARLNEALLEACVEPTDLLTTLSNMLPVRLATAMMVPYTLPLESALSFTIRLLEWLPDVPEDIRWMKEQTGSICQYLVMRAKRKLGRHLPSRLPEQVELRRVQSLPSVPLSCAAYREALPGWMRNNLSLGDALAKWEECQRQLLLGLFCTNVAFPPEALRMRAPADPAPAPADPASPQHQLAGPAPLLSTPAPEARPVIGALGL [chain 1 S158A] the screen value (parent: 0.26, not graded) was -0.121 and the screen value (parent: 0.56, not graded) was 0.343.
